“And” between values parts separate entries of the source, which are not always exact repeats. Identical values can stand only once. Like-named read-outs stand apart in the source and are kept apart here.
Key:
[1] = biological target: cynomolgus monkey CD3 on the surface of expanded monkey T cells (cynomolgus monkey) (UniProt Q95LI5); assay: FACS, expanded monkey T cells
[2] = biological target: human CD3 on the cell surface (Jurkat cells, expanded human T cells, Jurkat-Lucia NFAT cells, human PBMC) (human) (UniProt P07766); assay: cell-based or functional assay
human CD3 on the cell surface (Jurkat cells, expanded human T cells, Jurkat-Lucia NFAT cells, human PBMC) (human), sequence (P07766 23-207, chain 1 of 3): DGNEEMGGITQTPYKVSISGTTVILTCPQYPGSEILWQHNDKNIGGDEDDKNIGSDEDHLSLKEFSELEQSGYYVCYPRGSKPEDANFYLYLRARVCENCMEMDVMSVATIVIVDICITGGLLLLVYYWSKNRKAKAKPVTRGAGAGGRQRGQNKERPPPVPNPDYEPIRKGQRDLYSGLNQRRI
human CD3 on the cell surface (Jurkat cells, expanded human T cells, Jurkat-Lucia NFAT cells, human PBMC) (human), sequence (P04234 22-171, chain 2 of 3, further chain): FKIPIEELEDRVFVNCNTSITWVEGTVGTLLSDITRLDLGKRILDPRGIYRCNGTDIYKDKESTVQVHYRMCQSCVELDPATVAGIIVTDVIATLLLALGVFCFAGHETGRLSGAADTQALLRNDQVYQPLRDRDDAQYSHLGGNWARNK
human CD3 on the cell surface (Jurkat cells, expanded human T cells, Jurkat-Lucia NFAT cells, human PBMC) (human), sequence (P09693 23-182, chain 3 of 3, further chain): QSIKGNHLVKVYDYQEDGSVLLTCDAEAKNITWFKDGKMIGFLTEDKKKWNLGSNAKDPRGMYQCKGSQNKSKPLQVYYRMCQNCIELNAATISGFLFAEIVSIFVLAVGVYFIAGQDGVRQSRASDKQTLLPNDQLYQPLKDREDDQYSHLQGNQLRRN

[3] = biological target: human CD3 on the cell surface (Jurkat cells, expanded human T cells, Jurkat-Lucia NFAT cells, human PBMC) (human) (UniProt P07766); assay: FACS, expanded human T cells
[4] = biological target: cynomolgus monkey CD3 on the surface of expanded monkey T cells (cynomolgus monkey) (UniProt Q95LI5); assay: FACS, expanded monkey T cells, 20 nM antibody
[5] = biological target: human CD3 on the cell surface (Jurkat cells, expanded human T cells, Jurkat-Lucia NFAT cells, human PBMC) (human) (UniProt P07766); assay: cell-based or functional assay; remark: listed apart in the source
[6] = biological target: human CD3 on the cell surface (Jurkat cells, expanded human T cells, Jurkat-Lucia NFAT cells, human PBMC) (human) (UniProt P07766); assay: FACS, expanded human T cells; remark: listed apart in the source
[7] = biological target: human CD3 on the cell surface (Jurkat cells, expanded human T cells, Jurkat-Lucia NFAT cells, human PBMC) (human) (UniProt P07766); assay: cell-based or functional assay; remark: listed apart in the source
[8] = biological target: cynomolgus monkey CD3 on the surface of expanded monkey T cells (cynomolgus monkey) (UniProt Q95LI5); assay: FACS, expanded monkey T cells; remark: listed apart in the source
[9] = biological target: human CD3 on the cell surface (Jurkat cells, expanded human T cells, Jurkat-Lucia NFAT cells, human PBMC) (human) (UniProt P07766); assay: FACS, expanded human T cells; remark: listed apart in the source
[10] = biological target: cynomolgus monkey CD3 on the surface of expanded monkey T cells (cynomolgus monkey) (UniProt Q95LI5); assay: FACS, expanded monkey T cells, 100 nM antibody
[11] = biological target: human CD3 on the cell surface (Jurkat cells, expanded human T cells, Jurkat-Lucia NFAT cells, human PBMC) (human) (UniProt P07766); assay: FACS, expanded human T cells; remark: listed apart in the source
[12] = biological target: recombinant human CD3ε-ECD His protein (human) (UniProt P07766); assay: ELISA, coated antigen
recombinant human CD3ε-ECD His protein (human), sequence (P07766 23-126): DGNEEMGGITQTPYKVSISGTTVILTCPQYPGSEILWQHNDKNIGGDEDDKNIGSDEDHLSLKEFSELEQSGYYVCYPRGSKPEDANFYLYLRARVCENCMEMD

[13] = biological target: monkey CD3ε/δ-His (monkey) (UniProt Q95LI5); assay: ELISA, coated antigen
monkey CD3ε/δ-His (monkey), sequence (Q95LI5 22-117, stated change not applied, form in doubt, chain 1 of 2): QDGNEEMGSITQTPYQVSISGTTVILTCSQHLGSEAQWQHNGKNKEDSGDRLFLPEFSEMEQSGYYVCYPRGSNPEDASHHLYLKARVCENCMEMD
monkey CD3ε/δ-His (monkey), sequence (Q95LI8 22-105, stated change not applied, form in doubt, chain 2 of 2, further chain): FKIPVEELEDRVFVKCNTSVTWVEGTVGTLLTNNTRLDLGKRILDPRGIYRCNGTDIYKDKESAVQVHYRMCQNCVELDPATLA

[14] = biological target: recombinant human CD3ε-ECD His protein (human) (UniProt P07766); assay: ELISA, coated antigen; remark: listed apart in the source
[15] = biological target: monkey CD3ε protein (monkey) (UniProt Q95LI5); assay: ELISA, coated antigen
monkey CD3ε protein (monkey), sequence (Q95LI5 22-117 limits assumed): as the sequence (Q95LI5 22-117, stated change not applied, form in doubt, chain 1 of 2) above

human CD3ε/δ-His (human) [16] = biological target: human CD3ε/δ-His (human) (UniProt P07766); assay: ELISA, coated antigen
human CD3ε/δ-His (human), sequence (P07766 23-126, stated change not applied, form in doubt, chain 1 of 2): as the sequence (P07766 23-126) above
human CD3ε/δ-His (human), sequence (P04234 22-105, stated change not applied, form in doubt, chain 2 of 2, further chain): as the sequence (Q95LI8 22-105, stated change not applied, form in doubt, chain 2 of 2, further chain) above, with V5I, K15N, V20I, T32S, N33D, N34I, A64T, N74S, L83V counted along it

[17] = biological target: human CD3 on the cell surface (Jurkat cells, expanded human T cells, Jurkat-Lucia NFAT cells, human PBMC) (human) (UniProt P07766); assay: FACS, Jurkat cells
[18] = biological target: cynomolgus monkey CD3 on the surface of expanded monkey T cells (cynomolgus monkey) (UniProt Q95LI5); assay: FACS, expanded monkey T cells, 4 nM antibody
[19] = biological target: human CD3 on the cell surface (Jurkat cells, expanded human T cells, Jurkat-Lucia NFAT cells, human PBMC) (human) (UniProt P07766); assay: FACS, Jurkat cells; remark: listed apart in the source
[20] = biological target: human CD3 on the cell surface (Jurkat cells, expanded human T cells, Jurkat-Lucia NFAT cells, human PBMC) (human) (UniProt P07766); assay: cell-based or functional assay; remark: listed apart in the source
[21] = biological target: cynomolgus monkey CD3 on the surface of expanded monkey T cells (cynomolgus monkey) (UniProt Q95LI5); assay: FACS, expanded monkey T cells; remark: listed apart in the source
[22] = biological target: human CD3 on the cell surface (Jurkat cells, expanded human T cells, Jurkat-Lucia NFAT cells, human PBMC) (human) (UniProt P07766); assay: FACS, Jurkat cells; remark: listed apart in the source
[23] = biological target: monkey CD3ε/δ-His (monkey) (UniProt Q95LI5); assay: ELISA, coated antigen, hybridoma screening
human CD3ε/δ-His (human) [24] = biological target: human CD3ε/δ-His (human) (UniProt P07766); assay: ELISA, coated antigen, hybridoma screening

cynomolgus monkey CD3 on the surface of expanded monkey T cells (cynomolgus monkey), sequence (Q95LI5 22-198, chain 1 of 3): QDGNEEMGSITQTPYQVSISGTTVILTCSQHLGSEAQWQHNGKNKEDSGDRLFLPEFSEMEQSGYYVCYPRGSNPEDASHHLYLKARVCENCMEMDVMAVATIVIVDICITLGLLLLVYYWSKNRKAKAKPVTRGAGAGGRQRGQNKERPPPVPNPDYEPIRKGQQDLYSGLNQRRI
cynomolgus monkey CD3 on the surface of expanded monkey T cells (cynomolgus monkey), sequence (Q95LI8 22-171, chain 2 of 3, further chain): as the sequence (P04234 22-171, chain 2 of 3, further chain) above, with I5V, N15K, I20V, S32T, D33N, I34N, T64A, S74N, V83L, H141R counted along it
cynomolgus monkey CD3 on the surface of expanded monkey T cells (cynomolgus monkey), sequence (Q95LI7 23-181, chain 3 of 3, further chain): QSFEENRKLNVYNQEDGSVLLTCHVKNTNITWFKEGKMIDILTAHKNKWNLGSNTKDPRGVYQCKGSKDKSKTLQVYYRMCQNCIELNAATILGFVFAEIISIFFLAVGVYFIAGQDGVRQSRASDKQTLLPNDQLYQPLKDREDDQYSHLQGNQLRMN

“anti-hel-hIgG1 (negative control antibody against Hen Egg Lysozyme)” gave an MFI Max [1] of 1570 MFI, a Maximum response value (RLU) [2] of 1830 RLU and an MFI Max [3] of 148 MFI. For the same substance, the MFI at antibody concentration 20 nM [4] was 80 MFI, the Maximum response value (RLU) [5] was 2330 RLU and the MFI Max [6] was 195 MFI. The Maximum response value (RLU) [7] was 3780 RLU, the MFI Max [8] was 195 MFI and the EC50 [9] was 0.0199 µM. For the same substance, the MFI Max [9] was 823 MFI, the Maximum fluorescence value Alexa 647 [9] was 480 MFI and the max MFI [9] was 2250 MFI. The MFI at antibody concentration 100 nM [10] was 170 MFI, the MFI Max [11] was 124 MFI and the max-OD450 [12] was 0.09 OD450. The max-OD450 [13] was 0.15 OD450, the max-OD450 [14] was 0.11 OD450 and the max-OD450 [15] was 0.16 OD450. It also gave a max-OD450 (human CD3ε/δ-His (human) [16]) of 0.09 OD450, an MFI Max [17] of 490 MFI and a Maximum fluorescence value Alexa 647 [17] of 108 MFI. The MFI at antibody concentration 4 nM [18] was 64 MFI, the MFI Max [19] was 151 MFI and the Maximum response value (RLU) [20] was 4250 RLU. For the same substance, the MFI Max [21] was 87 MFI, the Maximum fluorescence value Alexa 647 [21] was 299 MFI and the max MFI [21] was 74 MFI. For the same substance, the MFI Max [22] was 182 MFI.

“anti-hel-mIgG1 (negative control antibody against Hen Egg Lysozyme)” was tested, and the OD450 [23] was 0.07 OD450 and 0.04 OD450 and 0.05 OD450 and the OD450 (human CD3ε/δ-His (human) [24]) was 0.05 OD450 and 0.04 OD450.
